Numbering of substitutions follows the chain as printed.
Tests used:
Experiment in all cases: cell-based binding assay: CD97 GAIN mutant transiently expressed on ExpiCHO cells, A8 Fab titrated, flow cytometry MFI, 1:1 fit; upper panel
Q365A = biological target: T1, Q365A (human, UniProt P48960)
T1 construct: transiently expressed on the surface of ExpiCHO cells, gated by anti-V5 tag staining; also called CD97 GAIN mutant Q365A expressed on ExpiCHO cells
T1 sequence (receptor, looked up): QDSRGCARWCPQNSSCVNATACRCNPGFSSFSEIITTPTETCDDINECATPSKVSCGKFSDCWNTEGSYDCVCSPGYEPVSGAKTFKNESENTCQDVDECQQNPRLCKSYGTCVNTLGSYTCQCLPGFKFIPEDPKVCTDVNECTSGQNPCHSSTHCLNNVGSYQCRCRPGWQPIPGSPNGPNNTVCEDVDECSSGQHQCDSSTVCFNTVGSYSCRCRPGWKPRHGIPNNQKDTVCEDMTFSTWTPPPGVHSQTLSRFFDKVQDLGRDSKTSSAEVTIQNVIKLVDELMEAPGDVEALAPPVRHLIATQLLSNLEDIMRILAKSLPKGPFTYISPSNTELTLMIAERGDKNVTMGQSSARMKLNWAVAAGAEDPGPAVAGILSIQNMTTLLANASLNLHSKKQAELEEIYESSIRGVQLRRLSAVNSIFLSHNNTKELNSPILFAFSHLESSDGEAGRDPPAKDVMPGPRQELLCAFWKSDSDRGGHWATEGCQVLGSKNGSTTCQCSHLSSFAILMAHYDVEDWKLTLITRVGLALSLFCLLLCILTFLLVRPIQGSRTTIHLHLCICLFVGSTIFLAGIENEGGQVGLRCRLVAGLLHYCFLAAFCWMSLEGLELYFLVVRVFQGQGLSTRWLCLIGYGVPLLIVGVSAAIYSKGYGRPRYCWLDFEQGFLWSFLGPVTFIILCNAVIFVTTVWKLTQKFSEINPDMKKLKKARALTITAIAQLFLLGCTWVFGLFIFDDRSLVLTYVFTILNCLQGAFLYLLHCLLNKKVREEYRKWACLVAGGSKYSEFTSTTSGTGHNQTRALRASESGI
Experimental: (§1) KD values were determined from the curve fitting of a 1:1 binding model.

K519A = biological target: T2, K519A (human, UniProt P48960)
T2 construct: transiently expressed on the surface of ExpiCHO cells, gated by anti-V5 tag staining; also called CD97 GAIN mutant K519A expressed on ExpiCHO cells
T2 sequence (receptor, looked up): T1 sequence (receptor, looked up) with A345Q, K499A
Experimental: as §1

R380A = biological target: T3, R380A (human, UniProt P48960)
T3 construct: transiently expressed on the surface of ExpiCHO cells, gated by anti-V5 tag staining; also called CD97 GAIN mutant R380A expressed on ExpiCHO cells
T3 sequence (receptor, looked up): T1 sequence (receptor, looked up) with A345Q, R360A
Experimental: as §1

Kd (Q365A): 56 nM
Kd (K519A): 110 nM
Kd (R380A): 160 nM
B1: Antibody clone A8, Fab format (Fab, V domains shown)
VH: EVQLVESGGGLVQPGGSLRLSCAASGFTISSYSIHWVRQAPGKGLEWVASISPYYGSTSYADSVKGRFTISADTSKNTAYLQMNSLRAEDTAVYYCARSWYYYEQNPYWYQKEEQALDYWGQGTLVTVSS
VL: DIQMTQSPSSLSASVGDRVTITCRASQSVSSAVAWYQQKPGKAPKLLIYSASSLYSGVPSRFSGSRSGTDFTLTISSLQPEDFATYYCQQSVYSPVTFGQGTKVEIKR
notes: Fab; also called wild type A8
